From patent publication US20220396635A1 (UNIVERSIT T STUTTGART, published 2022)
One block for each binder: values may come before it.

Target: T1, FAP (UniProt Q12884 1-760, limits assumed)
T1 construct: whole, on cells; also called FAP on HT1080-FAP cells
Assay: flow cytometry, serial dilution on HT1080-FAP cells (FAP-expressing), PE anti-human Fc detection
Protocol: Binding of trivalent, bispecific fusion proteins to FAP-expressing (HT1080-FAP) cell lines was analyzed by flow cytometry. 2×10⁵ cells/well were incubated with a serial dilution of trivalent, bispecific antibodies for 1 h at 4° C. followed by detection using a PE-conjugated anti-human Fc antibody (Jackson ImmunoResearch Laboratories Inc).

EC50: 1 nM
B1: scDb/scFv-Fc (1-1)+2, trivalent bispecific anti-FAPxanti-CD3 (bispecific antibody)
chain 1: QVQLVQSGAEVKKPGASVKVSCKASGYTFTENIIHWVRQAPGQGLEWMGWFHPGSGSIKYNEKFKDRVTMTADTSTSTVYMELSSLRSEDTAVYYCARHGGTGRGAMDYWGQGTLVTVSSGGGGSDIQMTQSPSSLSASVGDRVTITCRASKSVSTSAYSYMHWYQQKPGKAPKLLIYLASNLESGVPSRFSGSGSGTDFTLTISSLQPEDFATYYCQHSRELPYTFGQGTKLEIKRGGGGSGGGGSQVQLVQSGAEVKKPGASVKVSCKASGYTFTENIIHWVRQAPGQGLEWMGWFHPGSGSIKYNEKFKDRVTMTADTSTSTVYMELSSLRSEDTAVYYCARHGGTGRGAMDYWGQGTLVTVGGGGSDIQMTQSPSSLSASVGDRVTITCRASKSVSTSAYSYMHWYQQKPGKAPKLLIYLASNLESGVPSRFSGSGSGTDFTLTISSLQPEDFATYYCQHSRELPYTFGQGTKLEIKRAAADKTHTCPPCPAPPVAGPSVFLFPPKPKDTLMISRTPEVTCVVVDVSHEDPEVKFNWYVDGVEVHNAKTKPREEQYNSTYRVVSVLTVLHQDWLNGKEYKCKVSNKGLPSSIEKTISKAKGQPREPQVCTLPPSRDELTKNQVSLSCAVKGFYPSDIAVEWESNGQPENNYKTTPPVLDSDGSFFLVSKLTVDKSRWQQGNVFSCSVMHEALHNHYTQKSLSLSPGK
chain 2: DIQMTQSPSSLSASVGDRVTITCRASQDIRNYLNWYQQKPGKAPKLLIYYTSRLHSGVPSRFSGSGSGTDFTFTISSLQPEDIATYYCQQGNTLPWTFGQGTKLEIKRGGGGSGGGGSGGGGSQVQLVQSGAEVKKPGSSVKVSCKASGGTFSGYTMNWVRQAPGQGLEWMGLINPYKGVSTYNGKFKDRVTITADKSTSTAYMELSSLRSEDTAVYYCARSGYYGDSDWYFDVWGQGTLVTVSSAAADKTHTCPPCPAPPVAGPSVFLFPPKPKDTLMISRTPEVTCVVVDVSHEDPEVKFNWYVDGVEVHNAKTKPREEQYNSTYRVVSVLTVLHQDWLNGKEYKCKVSNKGLPSSIEKTISKAKGQPREPQVYTLPPCRDELTKNQVSLWCLVKGFYPSDIAVEWESNGQPENNYKTTPPVLDSDGSFFLYSKLTVDKSRWQQGNVFSCSVMHEALHNHYTQKSLSLSPGK
notes: also called scDbFAPxFAP-Fc(hole)Δab + scFvhuU3-Fc(knob)Δab

EC50: 0.4 nM
B2: scDb/Fab-Fc (2-1)+1, trivalent bispecific anti-FAPxanti-CD3 (bispecific antibody, human IgG1, kappa)
chain: QVQLVQSGAEVKKPGSSVKVSCKASGGTFSGYTMNWVRQAPGQGLEWMGLINPYKGVSTYNGKFKDRVTITADKSTSTAYMELSSLRSEDTAVYYCARSGYYGDSDWYFDVWGQGTLVTVSSGGGGSDIQMTQSPSSLSASVGDRVTITCRASKSVSTSAYSYMHWYQQKPGKAPKLLIYLASNLESGVPSRFSGSGSGTDFTLTISSLQPEDFATYYCQHSRELPYTFGQGTKLEIKRGGGGSGGGGSQVQLVQSGAEVKKPGASVKVSCKASGYTFTENIIHWVRQAPGQGLEWMGWFHPGSGSIKYNEKFKDRVTMTADTSTSTVYMELSSLRSEDTAVYYCARHGGTGRGAMDYWGQGTLVTVGGGGSDIQMTQSPSSLSASVGDRVTITCRASQDIRNYLNWYQQKPGKAPKLLIYYTSRLHSGVPSRFSGSGSGTDFTFTISSLQPEDIATYYCQQGNTLPWTFGQGTKLEIKRAAADKTHTCPPCPAPPVAGPSVFLFPPKPKDTLMISRTPEVTCVVVDVSHEDPEVKFNWYVDGVEVHNAKTKPREEQYNSTYRVVSVLTVLHQDWLNGKEYKCKVSNKGLPSSIEKTISKAKGQPREPQVCTLPPSRDELTKNQVSLSCAVKGFYPSDIAVEWESNGQPENNYKTTPPVLDSDGSFFLVSKLTVDKSRWQQGNVFSCSVMHEALHNHYTQKSLSLSPGK
heavy: QVQLVQSGAEVKKPGASVKVSCKASGYTFTENIIHWVRQAPGQGLEWMGWFHPGSGSIKYNEKFKDRVTMTADTSTSTVYMELSSLRSEDTAVYYCARHGGTGRGAMDYWGQGTLVTVSSASTKGPSVFPLAPSSKSTSGGTAALGCLVKDYFPEPVTVSWNSGALTSGVHTFPAVLQSSGLYSLSSVVTVPSSSLGTQTYICNVNHKPSNTKVDKKVEPKSCDKTHTCPPCPAPPVAGPSVFLFPPKPKDTLMISRTPEVTCVVVDVSHEDPEVKFNWYVDGVEVHNAKTKPREEQYNSTYRVVSVLTVLHQDWLNGKEYKCKVSNKGLPSSIEKTISKAKGQPREPQVYTLPPCRDELTKNQVSLWCLVKGFYPSDIAVEWESNGQPENNYKTTPPVLDSDGSFFLYSKLTVDKSRWQQGNVFSCSVMHEALHNHYTQKSLSLSPGK
light: DIQMTQSPSSLSASVGDRVTITCRASKSVSTSAYSYMHWYQQKPGKAPKLLIYLASNLESGVPSRFSGSGSGTDFTLTISSLQPEDFATYYCQHSRELPYTFGQGTKLEIKRRTVAAPSVFIFPPSDEQLKSGTASVVCLLNNFYPREAKVQWKVDNALQSGNSQESVTEQDSKDSTYSLSSTLTLSKADYEKHKVYACEVTHQGLSSPVTKSFNRGEC
notes: also called scDbCD3xFAP-Fc(hole)Δab + VHFAP-CH1-Fc(knob)Δab + VLFAP-CLκ

EC50: 0.6 nM
B3: scDb/scFv-Fc (1-2)+1, trivalent bispecific anti-FAPxanti-CD3 (bispecific antibody)
chain 1: QVQLVQSGAEVKKPGASVKVSCKASGYTFTENIIHWVRQAPGQGLEWMGWFHPGSGSIKYNEKFKDRVTMTADTSTSTVYMELSSLRSEDTAVYYCARHGGTGRGAMDYWGQGTLVTVSSGGGGSDIQMTQSPSSLSASVGDRVTITCRASQDIRNYLNWYQQKPGKAPKLLIYYTSRLHSGVPSRFSGSGSGTDFTFTISSLQPEDIATYYCQQGNTLPWTFGQGTKLEIKRGGGGSGGGGSGGGGSQVQLVQSGAEVKKPGSSVKVSCKASGGTFSGYTMNWVRQAPGQGLEWMGLINPYKGVSTYNGKFKDRVTITADKSTSTAYMELSSLRSEDTAVYYCARSGYYGDSDWYFDVWGQGTLVTVSSGGGGSDIQMTQSPSSLSASVGDRVTITCRASKSVSTSAYSYMHWYQQKPGKAPKLLIYLASNLESGVPSRFSGSGSGTDFTLTISSLQPEDFATYYCQHSRELPYTFGQGTKLEIKRAAADKTHTCPPCPAPPVAGPSVFLFPPKPKDTLMISRTPEVTCVVVDVSHEDPEVKFNWYVDGVEVHNAKTKPREEQYNSTYRVVSVLTVLHQDWLNGKEYKCKVSNKGLPSSIEKTISKAKGQPREPQVCTLPPSRDELTKNQVSLSCAVKGFYPSDIAVEWESNGQPENNYKTTPPVLDSDGSFFLVSKLTVDKSRWQQGNVFSCSVMHEALHNHYTQKSLSLSPGK
chain 2: QVQLVQSGAEVKKPGASVKVSCKASGYTFTENIIHWVRQAPGQGLEWMGWFHPGSGSIKYNEKFKDRVTMTADTSTSTVYMELSSLRSEDTAVYYCARHGGTGRGAMDYWGQGTLVTVSSGGGGSGGGGSGGGGSDIQMTQSPSSLSASVGDRVTITCRASKSVSTSAYSYMHWYQQKPGKAPKLLIYLASNLESGVPSRFSGSGSGTDFTLTISSLQPEDFATYYCQHSRELPYTFGQGTKLEIKRAAADKTHTCPPCPAPPVAGPSVFLFPPKPKDTLMISRTPEVTCVVVDVSHEDPEVKFNWYVDGVEVHNAKTKPREEQYNSTYRVVSVLTVLHQDWLNGKEYKCKVSNKGLPSSIEKTISKAKGQPREPQVYTLPPCRDELTKNQVSLWCLVKGFYPSDIAVEWESNGQPENNYKTTPPVLDSDGSFFLYSKLTVDKSRWQQGNVFSCSVMHEALHNHYTQKSLSLSPGK
notes: The FAP site is hu36; also called scDbFAPxCD3-Fc(hole)Δab + scFvFAP-Fc(knob)Δab

EC50: 0.5 nM
B4: scDb/Fab-Fc (1-2)+1, trivalent bispecific anti-FAPxanti-CD3 (bispecific antibody, human IgG1, kappa)
chain: B3 chain 1
heavy: B2 heavy
light: B2 light
notes: also called scDbFAPxCD3-Fc(hole)Δab + VHFAP-CH1-Fc(knob)Δab + VLFAP-CLκ

EC50: 0.3 nM
B5: scDb/scFv-Fc (2-1)+1, trivalent bispecific anti-FAPxanti-CD3 (bispecific antibody)
chain 1: B2 chain
chain 2: B3 chain 2
notes: also called scDbCD3xFAP-Fc(hole)Δab + scFvFAP-Fc(knob)Δab
